± gives the standard deviation of the averaged measurements.
Legend:
Saccharomyces cerevisiae [1] = assay: protein stability index of tFT-peptide fusion (C-terminal peptide) (PSI (0-1 scale)); higher = more stable (slower turnover)
Protocol: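 MPS profiling in S. cerevisiae of the tFT-X12 degron library: putative degron peptides plus stable controls, 12 aa, fused to the C-terminus of a sfGFP-mCherry timer. Cells are FACS-sorted into 8 mCherry/sfGFP bins and deep-sequenced. PSI runs from 0 (unstable) to 1 (stable). Backgrounds are wild type, das1Δ and doa10Δ at 30 °C, and wild type, das1Δ, cdc34-1 and cdc53-1 at 37 °C; 2-3 technical replicates each.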

Saccharomyces cerevisiae [2] = assay: as above; conditions: genetic background: wild type; temperature: 30 C
[3] = genetic background: cdc34-1, temperature: 37 C
[4] = genetic background: cdc53-1, temperature: 37 C
[5] = genetic background: das1 deletion, temperature: 30 C
[6] = genetic background: das1 deletion, temperature: 37 C
[7] = genetic background: doa10 deletion, temperature: 30 C
[8] = genetic background: wild type, temperature: 30 C
[9] = genetic background: wild type, temperature: 37 C
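Also: PSI is a weighted mean of sequencing reads over stability bins, variants kept only with over 10 reads, mCherry proximal and sfGFP distal, peptide attached via GGGS linker.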

Sequence | protein stability index (Saccharomyces cerevisiae [1]; [3]) | protein stability index (Saccharomyces cerevisiae [1]; [4]) | protein stability index (Saccharomyces cerevisiae [1]; [5]) | protein stability index (Saccharomyces cerevisiae [1]; [6]) | protein stability index (Saccharomyces cerevisiae [1]; [7]) | protein stability index (Saccharomyces cerevisiae [1]; [8]) | protein stability index (Saccharomyces cerevisiae [1]; [9]) | protein stability index (Saccharomyces cerevisiae [2])
MQFVALFLVGLL | 0.465 ± 0.041 | 0.5087 ± 0.001 | 0.346 ± 0.049 | 0.5245 ± 0.0022 | 0.308 ± 0.0095 | 0.354 ± 0.023 | 0.509 ± 0.0056 | 0.465 ± 0.0047
MRGPAWVCVLYS | 0.637 ± 0.026 | 0.711 ± 0.012 | 0.59 ± 0.044 | 0.69291 ± 0.00012 | 0.284 ± 0.0086 | 0.339 ± 0.023 | 0.5348 ± 0.0048 | 0.485 ± 0.028
MSVLAFVCCLSG | 0.3532 ± 0.0026 | 0.311 ± 0.0052 | 0.289 ± 0.033 | 0.393 ± 0.022 | 0.2478 ± 0.0014 | 0.268 ± 0.027 | 0.3585 ± 0.0029 | 0.336 ± 0.0033
NDVGGYFYVCSE | 0.682 ± 0.013 | 0.749 ± 0.013 | 0.641 ± 0.012 | 0.7142 ± 0.0056 | 0.63 ± 0.011 | 0.648 ± 0.024 | 0.735 ± 0.023 | 0.578 ± 0.12
NHKTIRIQNKSI | 0.67783 ± 7.8e-06 | 0.775 ± 0.045 | 0.64 ± 0.034 | 0.699 ± 0.0092 | 0.146 ± 0.0041 | 0.143 ± 0.051 | 0.424 ± 0.044 | 0.302 ± 0.031
NKYSMQNVLKSF | 0.7 ± 0.034 | 0.711 ± 0.02 | 0.632 ± 0.025 | 0.752 ± 0.017 | 0.249 ± 0.06 | 0.323 ± 0.025 | 0.552 ± 0.049 | 0.418 ± 0.023
NLDRYYKKIKLI | 0.338 ± 0.025 | 0.69 ± 0.013 | 0.689 ± 0.063 | 0.733 ± 0.019 | 0.052 ± 0.03 | 0.0742 ± 0.029 | 0.0913 ± 0.021 | 0.15 ± 0.025
NLSYFFFSVLFF | 0.552 ± 0.069 | 0.562 ± 0.018 | 0.506 ± 0.033 | 0.693 ± 0.067 | 0.62 ± 0.022 | 0.545 ± 0.068 | 0.612 ± 0.038 | 0.499 ± 0.032
NSCHFYSRFYLA | 0.651 ± 0.012 | 0.7421 ± 0.00091 | 0.657 ± 0.022 | 0.70341 ± 0.00042 | 0.243 ± 0.0054 | 0.3 ± 0.019 | 0.5196 ± 0.00096 | 0.3452 ± 0.0025
NVALHPGVPRKC | 0.656 ± 0.038 | 0.715 ± 0.018 | 0.677 ± 0.026 | 0.75 ± 0.031 | 0.664 ± 0.018 | 0.649 ± 0.019 | 0.702 ± 0.019 | 0.341 ± 0.036
NYCLYFKLSRLS | 0.62 ± 0.029 | 0.691 ± 0.016 | 0.603 ± 0.015 | 0.655 ± 0.021 | 0.221 ± 0.02 | 0.25 ± 0.017 | 0.429 ± 0.011 | 0.3897 ± 0.00059
NYVFALFYMVVA | 0.196 ± 0.022 | 0.311 ± 0.031 | 0.224 ± 0.033 | 0.3449 ± 0.0014 | 0.19 ± 0.0089 | 0.217 ± 0.025 | 0.345 ± 0.03 | 0.254 ± 0.0054
PALPTPPVSPSP | 0.613 ± 0.092 | 0.667 ± 0.11 | 0.256 ± 0.025 | 0.465 ± 0.0057 | 0.243 ± 0.014 | 0.265 ± 0.022 | 0.43648 ± 0.00011 | 0.333 ± 0.013
PCVPRLLPLQLS | 0.628 ± 0.019 | 0.795 ± 0.028 | 0.6546 ± 0.005 | 0.758 ± 0.03 | 0.216 ± 0.0089 | 0.233 ± 0.0069 | 0.363 ± 0.0044 | 0.252 ± 0.03
PCYRPPLPALLS | 0.613 ± 0.013 | 0.69 ± 0.0093 | 0.62 ± 0.036 | 0.705 ± 0.024 | 0.395 ± 0.024 | 0.43 ± 0.03 | 0.568 ± 0.033 | 0.501 ± 0.013
PDPIFGEWVYMV | 0.57943 ± 4.3e-05 | 0.72148 ± 0.00041 | 0.644 ± 0.0072 | 0.7555 ± 0.0066 | 0.249 ± 0.00039 | 0.26 ± 0.02 | 0.384 ± 0.0032 | 0.327 ± 0.0015
PFAFLSLVLLLP | 0.51 ± 0.017 | 0.5103 ± 0.0028 | 0.418 ± 0.029 | 0.5176 ± 0.0043 | 0.383 ± 0.027 | 0.35 ± 0.023 | 0.482 ± 0.02 | 0.418 ± 0.0045
PFFFIFVLPFVF | 0.456 ± 0.045 | 0.51212 ± 0.00041 | 0.366 ± 0.024 | 0.524 ± 0.0093 | 0.318 ± 0.027 | 0.309 ± 0.041 | 0.465 ± 0.0074 | 0.402 ± 0.011
PFLLLVSPISSC | 0.416 ± 0.037 | 0.403 ± 0.01 | 0.301 ± 0.028 | 0.4637 ± 0.0012 | 0.271 ± 0.0057 | 0.302 ± 0.028 | 0.445 ± 0.014 | 0.433 ± 0.011
